Reference: patent publication US20200377563A1 (Pieris, published 2020)
Substitutions are numbered along the chain they refer to. Several values for one entry are separate records, joined by “and”; a condition that tells them apart may be missing. Equal entries are not always repeated. Where two headings read alike, the source gives them in different places.

B1: fusion protein of SEQ ID NO: 7 (designed binder)
chain: QDSTSDLIPAPPLSKVPLQQNFQDNQFHGKWYVVGEAGNLLLREDKDPRKMTATIYELKEDKSYDVTRVEFGAKTYKYQIGTFVPGSQPGEFTLGGIESMPGMTSFLVRVVSTNYNQHAIVFFKYVYQNREYFEITLYGRTKELTSELKENFIRFSKSLGLPENHIVFPVPIDQAIDGSGGGGSLAEAKEAANAELDSYGVSDFYKRLIDKAKTVEGVEALKDAILAALPSAWSHPQFEK
B2: benchmark antibody 2 (antibody, human IgG4, kappa, V domains shown)
VH: QVQLVQSGAEVKKPGSSVKVSCKASGYSFTDYHISWVRQAPGQGLEWMGVINPEYGTTDYNQRFKGRVTITADESTSTAYMELSSLRSEDTAVYYCARYDYFTGTGAYWGQGTLVTVSS
VL: DIVMTQTPLSLSVTPGQPASISCRSSQSLKHSRGNTFLHWYLQKPGQSPQLLIYKVSNRFIGVPDRFSGSGSGTDFTLKISRVEAEDVGVYYCSQSTHYPFTFGQGTKLEIKR
B3: mouse IL-23 (ligand)
chain 1: VPRSSSPDWAQCQQLSRNLCMLAWNAHAPAGHMNLLREEEDEETKNNVPRIQCEDGCDPQGLKDNSQFCLQRIRQGLAFYKHLLDSDIFKGEPALLPDSPMEQLHTSLLGLSQLLQPEDHPRETQQMPSLSSSQQWQRPLLRSKILRSLQAFLAIAARVFAHGAATLTEPLVPTA
chain 2: MWELEKDVYVVEVDWTPDAPGETVNLTCDTPEEDDITWTSDQRHGVIGSGKTLTITVKEFLDAGQYTCHKGGETLSHSHLLLHKKENGIWSTEILKNFKNKTFLKCEAPNYSGRFTCSWLVQRNMDLKFNIKSSSSSPDSRAVTCGMASLSAEKVTLDQRDYEKYSVSCQEDVTCPTAEETLPIELALEARQQNKYENYSTSFFIRDIIKPDPPKNLQMKPLKNSQVEVSWEYPDSWSTPHSYFSLKFFVRIQRKKEKMKETEEGCNQKGAFLVEKTSTEVQCKGGNVCVQAQDRYYNSSCSKWACVPCRVRS
notes: also called mIL-23
B4: lipocalin mutein SEQ ID NO: 46 (designed binder)
chain: QDSTSDLIPAPPLSKVPLQQNFQDNQFHGKWYVVGEAGNLLLREDKDPRKMTATIYELREDKSYDVTRVEFGVKTYKYQIGTFVPGSQPGEFTLGGIKSMPGMTSFLVRVVSTDYNQHAMVFFKYVYQNREYFEITLYGRTKELTSELKENFIRFSKSLGLPENHIVFPVPIDQAIDG
B5: lipocalin mutein SEQ ID NO: 45 (designed binder)
chain: B4 chain with L41I, R59K, Y76R, Q79R, D114N
B6: negative control SEQ ID NO: 43 (other)
chain: QDSTSDLIPAPPLSKVPLQQNFQDNQFQGKWYVVGLAGNAILREDKDPQKMYATIYELKEDKSYNVTSVLFRKKKCDYWIRTFVPGCQPGEFTLGNIKSYPGLTSYLVRVVSTNYNQHAMVFFKKVSQNREYFKITLYGRTKELTSELKENFIRFSKSLGLPENHIVFPVPIDQCIDG
B7: marmoset IL-17A (ligand)
chain: GIASPQNPGCPNAEDKNFPRTVMVNLNIRNRNTNSKRASDYYNRSSSPWNLHRNEDPERYPSVIWEAKCRHLGCVDADGNVDYHMNSVPIQQEILVLRREPRHCTNSFRLEKMLVSVGCTCVTPIVRHVA
notes: also called marmoset monkey IL-17A
B8: human IL-23 (ligand)
chain 1: RAVPGGSSPAWTQCQQLSQKLCTLAWSAHPLVGHMDLREEGDEETTNDVPHIQCGDGCDPQGLRDNSQFCLQRIHQGLIFYEKLLGSDIFTGEPSLLPDSPVGQLHASLLGLSQLLQPEGHHWETQQIPSLSPSQPWQRLLLRFKILRSLQAFVAVAARVFAHGAATLSP
chain 2: IWELKKDVYVVELDWYPDAPGEMVVLTCDTPEEDGITWTLDQSSEVLGSGKTLTIQVKEFGDAGQYTCHKGGEVLSHSLLLLHKKEDGIWSTDILKDQKEPKNKTFLRCEAKNYSGRFTCWWLTTISTDLTFSVKSSRGSSDPQGVTCGAATLSAERVRGDNKEYEYSVECQEDSACPAAEESLPIEVMVDAVHKLKYENYTSSFFIRDIIKPDPPKNLQLKPLKNSRQVEVSWEYPDTWSTPHSYFSLTFCVQVQGKSKREKKDRVFTDKTSATVICRKNASISVRAQDRYYSSSWSEWASVPCS
notes: Heterodimer of p19 and p40; Biotinylated in the ELISA formats; also called hIL-23; hIL23
B9: cynomolgus monkey IL-17A (ligand)
chain: GIAIPRNSGCPNSEDKNFPRTVMVNLNIHNRNTSTNPKRSSDYYNRSTSPWNLHRNEDPERYPSVIWEAKCRHLGCVKADGNVDYHMNSVPIQQEILVLRREPRHCPNSFRLEKILVSVGCTCVTPIVHHVA
notes: also called cIL-17A
B10: benchmark 3 (antibody, human IgG1, kappa, V domains shown)
VH: QVQLVQSGAEVKKPGASVKVSCKVSGKTFWSYGINWVRQAPGKGLEWMGYIYIGTGYTEPNPKYKGRVTMTEDTSTDTAYMELSSLRSEDTAVYYCATIGGYYGNFDQWGQGTTVTVSS
VL: DVVMTQSPLSLPVTLGQPASISCRSSQSLLISGGKTYLNWFQQRPGQSPRRLIYLVSKLDQGVPDRFSGSGSGTDFTLKISRVEAEDVGVYYCWQGTYFPLTFGQGTKLEIKR

How the values were obtained:
human IL-23 [1] = biological target: B8; assay: SPR (Biacore T200), biotinylated binder captured on CAP chip, hIL-23 as analyte, buffer with 350 mM NaCl
Protocol: To this end, undiluted Biotin CAPture Reagent was applied at a flow rate of 2 μL/min for 300 s. […] The reference channel was loaded with Biotin CAPture Reagent only.
Applying a flow rate of 30 μL/min, a single cycle kinetics approach was used with a sample contact time of 300 s and a dissociation time of 4000 s or 7200 s. After ligand immobilization, all 5 concentrations were applied consecutively in ascending order before the dissociation was monitored. All measurements were performed at 25° C.

human IL-23 [2] = biological target: B8; assay: competition ELISA (MSD), biotinylated hIL-23 pre-incubated with binder, free hIL-23 captured on coated hIL-23R
Protocol: (§1) All incubation steps were performed with shaking 300 rpm, and the plate was washed after each incubation step with 80 μl PBS/0.05% Tween 20 for five times using a Biotek EL405 select CW washer. […] After washing, the receptor-coated wells were blocked with 60 μl PBS-T/BSA for 1 h at room temperature.
(§2) After washing, 60 μl MSD Read Buffer T (2×) was added to each well and the plate was read within 15 min.
(§3) The resulting ECL signal was measured using the SECTOR Imager 2400 (Meso Scale Discovery).

human IL-17A = human IL-17A (human, UniProt Q16552 24-155, limits assumed); assay: cell-based or functional assay
[3] = biological target: T1, lipocalin mutein of SEQ ID NO: 2; assay: solution competition ELISA: 0.5 nM SEQ ID NO: 2 pre-incubated with varied ligand, free mutein captured on immobilised biotinylated hIL-23
T1 construct: Mutein of human lipocalin 2 (NGAL); Also used as negative control in the IL-17A cell assay; also called hNGAL mutein

human IL-23 [4] = biological target: B8; assay: cell-based or functional assay
human IL-23 [5] = biological target: B8; assay: SPR (Biacore T200), hIL-23 amine-coupled on chip, mutein as analyte
human IL-23 [6] = biological target: B8; assay: competition ELISA (MSD), biotinylated hIL-23 pre-incubated with binder, free hIL-23 captured on coated hIL-23R; remark: listed apart in the source
human IL-23 [7] = biological target: B8; assay: competition ELISA (MSD): biotinylated hIL-23 tracer pre-incubated with the titrated control, free hIL-23 captured on coated soluble hIL-23R
Protocol: as §1, §2, §3

[8] = biological target: T2, lipocalin mutein of SEQ ID NO: 1; assay: solution competition ELISA: 0.25 nM SEQ ID NO: 1 pre-incubated with varied ligand, free mutein captured on immobilised biotinylated hIL-17A
T2 construct: Mutein of human tear lipocalin; also called Tlc mutein
Protocol: In the following detailed experimental protocol, incubation and washing steps were performed as described above in the competition ELISA protocol. A 384-well plate suitable for fluorescence measurements (Greiner FLUOTRAC™ 600, black flat bottom, high-binding) was coated with 20 μl of Neutravidin at a concentration of 5 μg/ml in PBS over night at 4° C. After washing, the Neutravidin-coated wells were blocked with 100 μl blocking buffer (PBS-T/BSA) for 1h at room temperature.

T2 sequence (chain, as listed by the source): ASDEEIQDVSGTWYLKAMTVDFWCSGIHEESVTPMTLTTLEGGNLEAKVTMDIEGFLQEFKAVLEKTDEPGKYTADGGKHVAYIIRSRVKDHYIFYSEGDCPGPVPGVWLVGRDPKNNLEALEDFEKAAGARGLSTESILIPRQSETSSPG

## B1
Human IL-23 [1]
  Kd: 2.4 nM
Human IL-23 [2]
  IC50: 1.11 nM

## B2
Human IL-17A
  IL-17A-induced G-CSF secretion in U87-MG cells, EC50, average: 0.12 nM
  IL-17A-induced G-CSF secretion in U87-MG cells, EC50, single experiment: 0.14 nM and 0.1 nM

## B3
[3]
  IC50: 0.5 nM

## B4
Human IL-23 [4]
  hIL-23-induced proliferation of Ba/F3 cells with hIL-23R and hIL-12Rβ1, EC50: 5.4 nM
Human IL-23 [5]
  Kd: 0.6 nM
  koff: 4e-05 s⁻¹
  kon: 70000 M⁻¹ s⁻¹
Human IL-23 [6]
  IC50: 1.1 nM

## B5
Human IL-23 [4]
  hIL-23-induced proliferation of Ba/F3 cells with hIL-23R and hIL-12Rβ1, EC50: 3.7 nM
Human IL-23 [5]
  Kd: 0.1 nM
  koff: 3e-05 s⁻¹
  kon: 300000 M⁻¹ s⁻¹
Human IL-23 [6]
  IC50: 0.1 nM

## B6
Human IL-23 [7]
  binding result: no binding

## B7
[8]
  IC50: 0.2 nM

## B8
[3]
  IC50: 0.9 nM

## B9
[8]
  IC50: 0.1 nM

## B10
Human IL-23 [4]
  hIL-23-induced proliferation of Ba/F3 cells with hIL-23R and hIL-12Rβ1, EC50, average: 3 nM
  hIL-23-induced proliferation of Ba/F3 cells, EC50, single experiment: 3.1 nM and 2.9 nM
